Experimental data taken from the DeepSol protein solubility set.

Assay: soluble on expression in E. coli; label from the status in PepcDB or PDB records

Soluble on expression in E. coli, soluble:
MPNNEASEEAKWYVVHTYSGYENKVKANLEKIVENRNLQDYILDIVVPMEEQIEIKDGKKKASLKKVFPGYVLVKMIMNDESWYVVRNTRGVTGFVGPGSKAVPLTDEEIRAMGVEEFAPVLDYEVGDNVRVVSGPLENFIGIVEEINLEKKKVRVSVSMFGRETPVELELHQIQKI
MPPYTVVYFPVRGRCAALRMLLADQGQSWKEEVVTVETWQEGSLKASCLYGQLPAFQDGDLTLYQSNTILRHLGRTLGLYGKDQQEAALVDMVNDGVEDLRCKYISLIYTNYEAGKDDYVKALPGQLKPFETLLSQNQGGKTFIVGDQISFADYNLLDLLLIHEVLAPGCLDAFPLLSAYVGRLSARPKLKAFLASPEYVNLPINGNGKQ
MPQVAGGRPRPPRGFRDFPPEVMILRKRLLSRLERVFESYGFDPLDTPAVEYWETLSGKYGEEAESRLIWRFQDPWSGRWYALRYDLTVPLARFVASNPGLPMPFKRYHIGKVWRHEEPQKGRYREFVQCDADIVGSPYPEADAEIVSLAVDSIDALGLPGFRVRVNDRRLLAGVFEEELGFDNPLPIYRAIDKLDKIGVEGVRRELERLGLPGSTVERIMEIISWRGRPGEVLESVRRGYGSNEKVREALDHLEEMLSLADDKRVELDMSLVRGLDYYTGPILEVVLDEPRIGSVAGGGRYDGLVGMFAGRDIPATGVSIGIERIIDAGLELGVYSLDVKTVAQVAVVVLDRRYYRYAWEAARILRRGGLNVRIDLSRASGQVQRRKASRLGIPVLAFVGAKEAEGGFLTLYSAAKGERVAVPLGEAVKAVERLLPS
MPTLTARSVIPPYMLRRIIEHGSLPQRDCALHTLNHVQSLLGNKPLRAPGAKTSTGGEVIRDIYDAENSTQLPGKQVRNEGQASNHDVAVDEAYDYLGVTYDFFWQAFKRNSLDNQGLPLTGSVHYGKEYQNAFWNGQQMVFGDGDGEIFNRFTIAIDVVGHALAHGVTESEAGLIYFQQAGALNESLSDVFGSLVKQFHLKQTADKADWLIGEGLLAKGINGKGLRSMSAPGTAYDDPLLGKDPQPASMKDYIQTKEDNGGVHLNSGIPNRAFYLAATALGGYAWEKAGYIWYDTLCDKALPQDADFATFARTTVKHAEQRFDSKVAQKVQQAWHQVGVA
MPTYEELSQAVFEGDEAQVVELTRSLLSGGAEPLEVINKGLIAGMDRVGVLFKNNEMFVPEVLMSANAMNAGVEVVKQSQQAFDMPSVGKIVLGTVKGDLHDIGKNLVAMMLESGGFTVYNLGVDIEPGKFVEAVKKYQPDIVGMSALLTTTMMNMKSTIDALIAAGLRDRVKVIVGGAPLSQDFADEIGADGYAPDAASATELCRQLLE
MPVQPPSKDTEEMEAEGDSAAEMNGEEEESEEERSGSQTESEEESSEMDDEDYERRRSECVSEMLDLEKQFSELKEKLFRERLSQLRLRLEEVGAERAPEYTEPLGGLQRSLKIRIQVAGIYKGFCLDVIRNKYECELQGAKQHLESEKLLLYDTLQGELQERIQRLEEDRQSLDLSSEWWDDKLHARGSSRSWDSLPPSKRKKAPLVSGPYIVYMLQEIDILEDWTAIKKARAAVSPQKRKSDGP
MPYPIEEKLVIGVASSALFDLSVSDDIYQTQGVEAYRQHQEQNLDEPFPRGVALPFIRRFLSINKAFPDQLPVEVVLLSRNSPETGLRVFRSISHYQLDITRAAFMSGRSPYEYIPAFNASLFLSANEEDVQKAIDANYPAGRVLPTRIYDDEIDTELRVAFDFDGVIADDEAESVYKRNDNLDDFQEHERMHKSTPHSPGPLADLYRKLSRIRMLEDRKLAEDPTYQRILRIAIVTARNAPSHERVVTTLKDWGVSPDECFFLGGMDKPRVLSILKPHVFFDDQRTHLQSPAGNLPMVHVPFGVANRVRSPQAPDVKQDQLPISASSCMPLEHHHHHH
MPYRRRQSTAPKSGAPKSVRSAAAGQSLDIDGIHLHLTRKPIKNLYLRIKPPSGRVEISAPMRMSESRIADFVKERHSWILAQQQRMAEAQRRSIMALNEGAGFENGGRGVAGASGHDGGVAGRPKTGDISRPGIGDAGPGQAGTNVQPYFDRSQIWTDERKRQAAAAINAALPQLLAKWGPVVGRQPTHITLRVMTSRWGSCTPRTGRIRLNLQLGLMEPQFLEYVLVHEMTHLWESGHGAGFQRRMTAYLPGWKTLRRDLNRRVVLLEHHHHHH
MQAFRAPSLATIDDVCGTRADGYDGAPLRSIPDFAVIVPMHNEEASVETLVAEIVTACQPVGQFEIVVVDDASSDRTVNAVLSLGDRYPMLRLVRHDRQGGQSAAIHSGVQAARAPVICMLDGDGQNPPDNLPALLAPLLSATATSRLGLVAGQRVGRRDTLGKRLSSRFANGLRARILKDGTRDTGCGLKAFRRDAYLALPYFDHHHRYFPALFNRDGWQVAHVDVTHRARLHGNSHYTNIGRALVGIHDLIGVVWLLRRRKRSSWAETFKTETSPLEHHHHHH
MQARKLAVDGAIEFTPRVFADDRGLLILPYQEEAFVEAHGGPLFRVAQTIHSMSKRGVVRGIHYTVTPPGTAKYVYCARGKAMDIVIDIRVGSPTFGQWDSVLMDQQDPRAVYLPVGVGHAFVALEDDTVFSYMASRSYVTQDELALSALDPALGLPIDIGVEPIVSDRDRVAITLAEAQRQGLLPDYTTSQEIERRLTAVPVST
MQDDPRYRVEVEVSPRFLAHQSTPEEGRYAFAYSIRIQNAGAVPARLIARHWKITDANGRTEQVDGEGVVGEQPRLRPGEAFHYTSGVLLETEQGQMQGYYDMVADDGTEFTAPIAAFVLSVPRTLHLEHHHHHH

Soluble on expression in E. coli, not soluble:
MPNYPFPILWLPPKPLGHLLRNMDFRNLIIFSLTSKPAKWLTELLNMDAPMISVHVDHQINIIVSSVKSVTYHASNGSLRESRGKIDRQINFPGSLKQFVEHLLHIFKEHKIDDLEIMCNSVYQYKPDIQALKGIKMRTLKLRYQESILKMFGTSADRIEFSTIKSAELENSKDILIQNFDYLKFDFEGSLTADNLIGINGKVVNIWAADIEMKDVNIFLKHWLKGSNPRLEKLILKTYRLDTDGNSVEDSVADLFRDLDCESIAESQFEILRDDESIAKISILEHGYWYNKIHCYFSLNEAMNLYTTYFWDIVHLQEKILH
MPRELGESLELRKGRHSVVYLTEKYAIKQFHERFRYNFLKEVKFLTLLQPFFFTPKLYFVDFANLRIVMERLRGRRFDEAFIRKAVERALEACFIMDVMGVEKQEMNHPDKHIIVGDDVYLIDFERARFKDRPSNLTQFCMYLRRFGIEIEKTLLKDYKTSVNCENFSRILHSVVEKLK
MPRTDLPFDELIIREYLLDNPDFFNRYPELLLAMRLPHLERGAISLVERRQELLRQRVNQLEEEITSLLTMAARNEKIFLFNTELSFKLLNCVNLESLKEVLADNLKAQFNFTHVRLISVLEADVEMKAIWAERLRKEYYFGRLTQQEAKRLFGSEVGSVALVKLADDIPVIFAVASHDATHFHPDMDNMLLEQIRRLLAHMLAKLAAALEHHHHHH
MPSAAPSSSVLLVQISDSHLFAEADGALLGMSTRDSLEKVVDLVLAEQPQVDLVVASGDISQDGSVESYEAFRRISTQIAAPARWFAGNHDELPQMEHVAQAEGLLEPIINIGRWRVTLLDSAVPGSVPGFLAAGQLQLLEQSLSEAPDRHHLVCLHHHPVAIGCEWMTPIGLRNADALFAVLDRFPQVRAVLWGHVHQEFDQMRNGVRLLASPSTCIQFAPGSADFKVDTTAPGYRWLRLHDDGRLETAVSRVVGMQFEVDYGGTGY
MPSISKTKSGERYRAPTDQARKMDRKKENKRNKKDRQQIRQAMAKYCNLDETTSKLLALERQILGLDPQPFHIDVLRKKQKVLTDSINKRRMTLQQGKEDAELKKFNDKINAYQSDCQKLAVLAQQARLAREADPDMIPLPMGDVSTAGPERNNQLLAPAMIKRKVEFQLPPRPVRVAGQKPPGPPCGLAPNFSDSEEEEEEVHDDHYDDIDLAPVPIPEFDNPYQPIHRNYGPPSSYNSMPTRMPHHHHHHHPHASSHYNPMGFQNHHEEAVISSAPQINRSNEPAAPATLSAAPELRNLRRETVKLVPAQLLRRPGDNKTIVPRQAAPVQRRPEVQKQAKNTDEAYNDFMKELDGLI
MPSKQVGWWTMSEHTNDEVQPTALSGNDAVNRAAEQWKESAHRNIPGLGDLPIPDDTANLREGPNLHDGLLALLPLVGVWRGTGHADTAEEGQYAFGQQITFAHDGENYLTYESRIWKLDDEGNSTDLDYRESGFWRISLKDEIEVVLTHSTGVAEIFYGEPMNERAWQIESASTMVTAQGPATLGPGKRLYGLMPNNNLGWVDERMVDGEMRPRMSAELSRVIG
MPTALIADDEPNLSAELAERLAELWPELEIVAMPRNGVDTLAALNAARPDIAFLDIRMPGIDGLKLASLVPDVHVVFVTAYDEYAVEAFDRSAIDYLLKPVTDERLLRCIAKLQRGGFAPPGAQALSDARMPKEPTLIRWLTVGLKDTTRLVSVDDVLYFQALDKYTEVVTAGERHVIRTPLKELLQRLDQDRFAQVHRGVIVAYAAIDRIERDLLGRLCIHLHGHRDVLPVSRAYAGLFKHM
MPTDKEGDFIDPKEQEESLENIFSSLNDFQEKTDANAQKNEQKNEQEEEQRRLKEQQRLRKNQKNQEMLKGLQQNLNQFAQKLESVKNKTLDLQIPKQDGVDEKAYQEWYAQIYQILYKGWKGVFYHKASVSALIMIAKDGEFDYTILSYSDFKDYNKSVMTLLNDLKKVDFPPYPGGSMISIQVNFTTKEEQ
MPVAPNPLLQANAIAKTSRSATVQADKPLQALGDKGDAFGQVMARQGRDKVTGQDDKVAQAKPKDKPDAAAGGKKDPAGKAAVADDGNKLPEEDSAQADTGVRDASLVAGQVTDAQPGAQLIQAQAEAVAPVLQAATAQTQVSAALPEEPSAEEAFDPDADPLANLPTLRLALEHSAQAKGGTSAHALDAAQAQGEEGQAAVNTLANLVEDTDGESAESGGKAFGALLEDGLKDTKSASSDTRIDDFANRLASLTQAATAKTANAVPATANPLHQPLPMNQNAWAEGLVNRVMYLSSQNLKSADIQLEPAELGRLDIRVNVAADQATQVTFISGHAGVRDALDSQVHRLRELFAQQGLAQPDVNVADQSRGQQQQQGQAQGSNLSGVAARRAEQGGAEAVDSARPLEQQVVVGDSAVDYYA
MPVKKESNAELDLDWRCRDGSSLVASLQPKPDPQKTGNYRKAKVSTTVSIPTAKATGNAPKYLPPHLRNRQESENKEEDDESECNSDTEKHSVISDQFSDSVDETSVKKIRIHWRGRRWTRGIECIGVQVDSQITRYSKLDDKCVRKSNSGRETTQTGCISDFAFAEVARLLKTPEIELELFAVDVPPFIQGEPRESYFNAMEKTFNLENVTRVNAKRVRLIGLTISEMEAVLKWVSVENLVVIRVYSGKNSIDERGAIVIQNMLSIFPQLQVGSFHMIVSNPLGVAKTFDEIYSDRLVKTPIILKGLDEEPKFNMKITSCDIQVRRESKKKKVTQI
MPVKKVEKNILVLHGADKMFELVDKVEDYPHFLPWYSKTEVIGRSGNELKARLFMDYMHVRQSFATHNRNIPGREIRMELLEGPFKTLRGTWKFIDLGDDMCKIEFNLEYDFSNAVLSALISPVFNHLSTTLVEAFVKEADRRYA
MQAAPQGGIYNYFHSLLPPLSLAPFLPRTPLPSTSLFCKGLKKERYKPRFRPRECHCSVENLHLGHEMQNSHRTICKSALQLLPPSWSDPFRRRDADFPPNSPSPARPSSENASNRAKEKVHLSPIIALCISHHTSQEKLFTQHLMNMPTGETHKSPPS
MQCHVKDEVLYIGKKEFEEPIKSEWVLEMQNTEKYKTIGPTFPDGTINWQCPCMAGGSLVAHRCGNFFRELYICMKSDDTRDPSEKCPNQFVNWAACMQNMSDERREQMRKAMTVDTEELKINPK
